# Patent publication US10562935B2, “Stapled peptides and uses thereof” (London Health Sciences Centre Research Inc., priority 2015, dated 2020)
# Bridges are numbered along the chain shown (N, C = ends).
# How the values were obtained:
# NF-κB = assay: Inflammation assay: NF-κB inducible SEAP reporter in RAW-Blue macrophages stimulated with PAM3CSK4; type: cell-based, murine; conditions: for inhibition of inflammation (SEAP / NF-κB activity, in words): 10 ng/mL peptide with 200 ng/mL PAM3CSK4, 18 hours, compared to +PAM3; for Inflammation (% Inhib.): % inhibition relative to positive control
# Summary of the method: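 RAW-Blue murine RAW 264.7 macrophages carrying an NF-κB-inducible SEAP reporter were stimulated with 200 ng/mL PAM3CSK4 and given peptide at 10 ng/mL. After 18 h, supernatant SEAP was developed with QUANTI-BLUE for 20 min at 37 °C and read by absorbance at 630 nm. Values are mean and SDM of n=3.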
# [1] = test system: IMR90 human fetal lung fibroblasts; assay: Fibrosis assay: active TGF-β levels in TGF-β treated fibroblasts (ELISA); type: cell-based; conditions: for Fibrosis (% inhib.): % inhibition relative to positive control
# Method: Compounds 132, 133, 135, 150, 152, 157-161, 265-269, 275, 277, and 278 were evaluated for their ability to inhibit fibrosis. IMR90 human fetal lung fibroblasts were obtained from ATCC and maintained in DMEM supplemented with 10% fetal bovine serum. In order to examine the effect of peptides on myofibroblast differentiation, 80% confluent cultures were serum starved overnight prior to addition of TGF-β (2 ng/mL, R&D Systems). Cells were treated with TGF-β for 24 hours prior to addition of peptides (10 ng/mL). 48 hours after addition of peptides, culture supernatants were collected and levels of active TGF-β measured using commercially available TGF-β ELISA (Quantikine, R&D Systems).
# Values are the Mean and SDM n=3 replicates. *p<0.05, **p<0.01, ***p<0.001 when compared to the +TGFβ1 control. In FIG. 47, where bars are labeled with two compound numbers (“133/150” and “135/152”) this means that the data were pooled for the indicated compounds, i.e., for the non-acetylated and acetylated versions of the indicated peptides.
# [2] = test system: RHAMM-overexpressing (LR21) cells; assay: Cell migration assay (Boyden chamber, Chemicon ECM510); type: cell-based; conditions: for inhibition of cell migration (in words): 10 ng/mL peptide, 20 hours, compared to 30% serum control; for Migration (% inhib.): % inhibition relative to positive control
# Summary of the method: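 Serum-starved LR21 cells (7.5×10^4) placed in the upper Boyden chamber with or without 10 ng/mL peptide, with 30% FBS in DMEM as lower-chamber chemoattractant. Cells crossing the membrane after 20 h quantified by CyQUANT GR fluorescence (480/520 nm); mean of n=3, compared with 30% serum control.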
# [3] = Circular dichroism (CD) spectroscopy of linear and stapled peptides in water or 40% TFE/water (Example 3); type: physicochemical; conditions: for [0]208 mean residue ellipticity: λ = 208 nm; for [0]222 mean residue ellipticity: λ = 222 nm
# Summary of the method: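 Spectra 180–260 nm at 20 °C, 0.5 mM N-acetylated, C-amidated peptides in 0.1M phosphate buffer (water) or 40% TFE/water, 1 mm path, five scans averaged, buffer baseline subtracted. Mean residue ellipticity reported at 222 and 208 nm with the 222/208 ratio as helicity index.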
# [4] = [θ]222/[θ]208 ratio in water, summary tables 15, 17, 19
# [5] = as repeated in tables 16, 18, 20
Substance,"inhibition of inflammation (SEAP / NF-κB activity, in words) (NF-κB)",Inflammation (% Inhib.) (NF-κB),Fibrosis (% inhib.) [1] [% inhib.],inhibition of cell migration (in words) [2],Migration (% inhib.) [2] [% inhib.],"[θ]222/[θ]208 ratio of ellipticities [3, 4]","[θ]222/[θ]208 ratio of ellipticities [3, 5]",[0]222/[0]208 ratio of ellipticities ([3]; in water),alpha-helical character by CD (in words) ([3]; in water),[0]208 mean residue ellipticity at λ=208 nm ([3]; 40% TFE/water),[0]222/[0]208 ratio of ellipticities ([3]; 40% TFE/water),[0]222 mean residue ellipticity at λ=222 nm ([3]; 40% TFE/water) [deg cm^2 dmol^−1],[0]208 mean residue ellipticity at λ=208 nm ([3]; water) [deg cm^2 dmol^−1],[0]222/[0]208 ratio of ellipticities ([3]; water),[0]222 mean residue ellipticity at λ=222 nm ([3]; water) [deg cm^2 dmol^−1],further results
"Ac-(cyclo-8,12)-NLKQKIK[EVVKK]KDE-NH2 (Ac-NLKQKIKEVVKKKDE-NH2; lactam 8-12; SMILES CC[C@H](C)[C@H](NC(=O)[C@H](CCCCN)NC(=O)[C@H](CCC(N)=O)NC(=O)[C@H](CCCCN)NC(=O)[C@H](CC(C)C)NC(=O)[C@H](CC(N)=O)NC(C)=O)C(=O)N[C@@H](CCCCN)C(=O)N[C@H]1CCC(=O)NCCCC[C@@H](C(=O)N[C@@H](CCCCN)C(=O)N[C@@H](CC(=O)O)C(=O)N[C@@H](CCC(=O)O)C(N)=O)NC(=O)[C@H](CCCCN)NC(=O)[C@H](C(C)C)NC(=O)[C@H](C(C)C)NC1=O) [Compound 161]",significantly inhibited inflammation,6,38,significantly inhibit cell migration,36,0.31,0.31,0.31,decreased helicity,,,,,,,[0]222/[0]208 ratio of ellipticities ([3]; in 40% TFE/water): 0.82; [0]208 mean residue ellipticity ([3]; in 40% TFE/water): -1.96E+04 deg cm^2 dmol^−1; [0]208 mean residue ellipticity ([3]; in water): -5.85E+03 deg cm^2 dmol^−1; [0]222 mean residue ellipticity ([3]; in 40% TFE/water): -1.60E+04 deg cm^2 dmol^−1; [0]222 mean residue ellipticity ([3]; in water): -1.80E+03 deg cm^2 dmol^−1
"Ac-(cyclo-10-14, cyclo-15-19)-KIKHVVKLK[EENSK][EKSEK]SKLRSQLVKRK-NH2 (Ac-KIKHVVKLKEENSKEKSEKSKLRSQLVKRK-NH2; lactam 10-14, 15-19; SMILES CC[C@H](C)[C@H](NC(=O)[C@H](CCCCN)NC(C)=O)C(=O)N[C@@H](CCCCN)C(=O)N[C@@H](Cc1c[nH]cn1)C(=O)N[C@H](C(=O)N[C@H](C(=O)N[C@@H](CCCCN)C(=O)N[C@@H](CC(C)C)C(=O)N[C@@H](CCCCN)C(=O)N[C@H]1CCC(=O)NCCCC[C@@H](C(=O)N[C@H]2CCC(=O)NCCCC[C@@H](C(=O)N[C@@H](CO)C(=O)N[C@@H](CCCCN)C(=O)N[C@@H](CC(C)C)C(=O)N[C@@H](CCCNC(=N)N)C(=O)N[C@@H](CO)C(=O)N[C@@H](CCC(N)=O)C(=O)N[C@@H](CC(C)C)C(=O)N[C@H](C(=O)N[C@@H](CCCCN)C(=O)N[C@@H](CCCNC(=N)N)C(=O)N[C@@H](CCCCN)C(N)=O)C(C)C)NC(=O)[C@H](CCC(=O)O)NC(=O)[C@H](CO)NC(=O)[C@H](CCCCN)NC2=O)NC(=O)[C@H](CO)NC(=O)[C@H](CC(N)=O)NC(=O)[C@H](CCC(=O)O)NC1=O)C(C)C)C(C)C) [Compound 266]",,0,24,significantly inhibit cell migration,61,0.63,0.63,0.63,best improvement in helicity,-2.11E04 deg cm^2 dmol^−1,0.84,-1.77E04,-9.36E+03,0.63,-5.89E+03,"inhibition of fibrosis (active TGF-β, in words) ([1]; 10 ng/mL peptide, 48 hours, compared to +TGFβ1 control): strong trend towards inhibition of fibrosis"
"Ac-(cyclo-10-14, cyclo-15-19)-KIKHVVKLK[EENSK][KKSEE]SKLRSQLVKRK-NH2 (Ac-KIKHVVKLKEENSKKKSEESKLRSQLVKRK-NH2; lactam 10-14, 15-19; SMILES CC[C@H](C)[C@H](NC(=O)[C@H](CCCCN)NC(C)=O)C(=O)N[C@@H](CCCCN)C(=O)N[C@@H](Cc1c[nH]cn1)C(=O)N[C@H](C(=O)N[C@H](C(=O)N[C@@H](CCCCN)C(=O)N[C@@H](CC(C)C)C(=O)N[C@@H](CCCCN)C(=O)N[C@H]1CCC(=O)NCCCC[C@@H](C(=O)N[C@H]2CCCCNC(=O)CC[C@@H](C(=O)N[C@@H](CO)C(=O)N[C@@H](CCCCN)C(=O)N[C@@H](CC(C)C)C(=O)N[C@@H](CCCNC(=N)N)C(=O)N[C@@H](CO)C(=O)N[C@@H](CCC(N)=O)C(=O)N[C@@H](CC(C)C)C(=O)N[C@H](C(=O)N[C@@H](CCCCN)C(=O)N[C@@H](CCCNC(=N)N)C(=O)N[C@@H](CCCCN)C(N)=O)C(C)C)NC(=O)[C@H](CCC(=O)O)NC(=O)[C@H](CO)NC(=O)[C@H](CCCCN)NC2=O)NC(=O)[C@H](CO)NC(=O)[C@H](CC(N)=O)NC(=O)[C@H](CCC(=O)O)NC1=O)C(C)C)C(C)C) [Compound 268]",,0,0,,0,0.40,0.40,,,-.304E04 deg cm^2 dmol^−1,0.83,-2.54E04,-6.74E+03,0.40,-2.71E+03,
"Ac-(cyclo-10-14, cyclo-15-19)-KIKHVVKLK[KENSE][EKSEK]SKLRSQLVKRK-NH2 [Compound 269]",,0,0,significantly inhibit cell migration,61,0.44,0.44,,,-2.65E04 deg cm^2 dmol^−1,0.81,-2.14E04,-9.04E+03,0.44,-3.99E+03,
"Ac-(cyclo-11-15, cyclo-16-20)-KIKHVVKLKD[ENSQK][ESEVK]KLRSQLVKRIK-NH2 [Compound 267]",,0,0,,0,0.48,0.48,0.48,,-3.02E04 deg cm^2 dmol^−1,0.77,-2.34E04,-1.29E+04,0.48,-6.14E+03,
Ac-(cyclo-28-32)-NLKQKIKHVVKLKDENSQLKSEVSKLR[EQLVK]RKQN-NH2 (Ac-NLKQKIKHVVKLKDENSQLKSEVSKLREQLVKRKQN-NH2; lactam 28-32; SMILES CC[C@H](C)[C@H](NC(=O)[C@H](CCCCN)NC(=O)[C@H](CCC(N)=O)NC(=O)[C@H](CCCCN)NC(=O)[C@H](CC(C)C)NC(=O)[C@H](CC(N)=O)NC(C)=O)C(=O)N[C@@H](CCCCN)C(=O)N[C@@H](Cc1c[nH]cn1)C(=O)N[C@H](C(=O)N[C@H](C(=O)N[C@@H](CCCCN)C(=O)N[C@@H](CC(C)C)C(=O)N[C@@H](CCCCN)C(=O)N[C@@H](CC(=O)O)C(=O)N[C@@H](CCC(=O)O)C(=O)N[C@@H](CC(N)=O)C(=O)N[C@@H](CO)C(=O)N[C@@H](CCC(N)=O)C(=O)N[C@@H](CC(C)C)C(=O)N[C@@H](CCCCN)C(=O)N[C@@H](CO)C(=O)N[C@@H](CCC(=O)O)C(=O)N[C@H](C(=O)N[C@@H](CO)C(=O)N[C@@H](CCCCN)C(=O)N[C@@H](CC(C)C)C(=O)N[C@@H](CCCNC(=N)N)C(=O)N[C@H]1CCC(=O)NCCCC[C@@H](C(=O)N[C@@H](CCCNC(=N)N)C(=O)N[C@@H](CCCCN)C(=O)N[C@@H](CCC(N)=O)C(=O)N[C@@H](CC(N)=O)C(N)=O)NC(=O)[C@H](C(C)C)NC(=O)[C@H](CC(C)C)NC(=O)[C@H](CCC(N)=O)NC1=O)C(C)C)C(C)C)C(C)C) [Compound 277],significantly inhibited inflammation,8,52,significantly inhibit cell migration,63,0.64,0.64,,,-3.10E04 deg cm^2 dmol^−1,0.85,-2.65E04,-1.46E+04,0.64,-9.36E+03,
